Assay results: patent US5863776A, “Method of preparing apoenzyme” (Research Development Foundation, priority 1996, dated 1999)

Legend:
[1] = molecular target: T1, MAO B (Homo sapiens, UniProt P27338, E34D); assay: [^14 C] FAD incorporation into wild-type or mutant MAO B in Rib^- COS-7 cells (immunoprecipitation, fluorography); format: binding; settings: densitometer
T1 construct: expressed in transfected cells; host or cells: Rib+ COS-7, transient
T1 sequence (P27338 2-520 E34D): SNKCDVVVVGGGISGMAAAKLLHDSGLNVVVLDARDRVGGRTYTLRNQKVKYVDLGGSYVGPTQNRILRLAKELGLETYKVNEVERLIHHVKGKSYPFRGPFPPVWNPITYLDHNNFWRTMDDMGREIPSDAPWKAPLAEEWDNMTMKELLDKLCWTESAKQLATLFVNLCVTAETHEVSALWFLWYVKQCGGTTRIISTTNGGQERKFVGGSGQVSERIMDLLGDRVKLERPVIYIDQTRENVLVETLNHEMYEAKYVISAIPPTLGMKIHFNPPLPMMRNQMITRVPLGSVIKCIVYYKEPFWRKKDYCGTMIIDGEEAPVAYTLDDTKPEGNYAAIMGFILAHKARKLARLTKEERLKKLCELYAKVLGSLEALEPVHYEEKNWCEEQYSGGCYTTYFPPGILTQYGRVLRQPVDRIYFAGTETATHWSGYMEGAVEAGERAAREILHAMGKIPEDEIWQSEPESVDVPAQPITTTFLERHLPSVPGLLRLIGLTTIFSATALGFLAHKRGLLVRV
Method: (§1) Mutagenesis was carried out by the method of Deng and Nickoloff (22) using a Transformer Site-directed Mutagenesis kit (Clontech). Glu in position 34 was replaced with Asp (E34D), Gln (E34Q), or Ala (E34A), and Val in position 10 was replaced with Ile (V10I) as described by Kwan et al. (18).
(§2) Wild-type or mutant MAO B cDNAs were transiently transfected into COS-7 cells by electroporation (23) as previously described (18). Briefly, Rib^+ - or Rib^- COS-7 cells were harvested during late log phase growth and resuspended to a concentration of 3.1×10^6 cells/ml in either riboflavin-containing or riboflavin-free medium, respectively. Wild-type or mutant MAO B cDNAs ([…]) were added to 0.8 ml of cell suspension. […] Electroporation was carried out in a Bio-Rad Gene Pulser with a setting of 250 V and 500 μF. Cells were resuspended in 15 ml of riboflavin-containing or riboflavin-free medium and incubated at 37° C. with 5% CO2. Transfected COS-7 cells were harvested at 48 hours and homogenized in a lysis solution containing 20 mM Tris-HCl, 1 mM EDTA, 0.5 mM PMSF, pH 8.0. The homogenate was diluted with an equal volume of the same buffer supplemented with 300 mM NaCl to obtain a 150 mM final NaCl concentration. Triton X-100 (Pierce) was added to the lysate to give a final concentration of 0.25%, and the samples were allowed to stir for 50 min. at 4° C. to extract MAO B from the outer mitochondrial membrane. After Triton extraction, the lysate was centrifuged at 1300×g for 5 min. at 4° C. to remove insoluble cell debris.
(§3) Transfected Rib^+ - or Rib^- COS-7 cells were homogenized, and extracted with 0.25% Triton X-100 for 50 minutes at 4° C. The cell lysates were centrifuged at 1300×g for 5 minutes, and an aliqout of each supernatant was analyzed for MAO B concentration by ELISA. All supernatants were then adjusted to equal MAO B concentration and incubated with polyclonal goat anti-MAO B antibody (10 μg) overnight at 4° C. Protein-G Sepharose beads (Pierce) were added (50 μl) and incubation was continued for 3 hours. The protein-G Sepharose/goat antibody/MAO B immmunocomplex was collected by centrifugation at 10,000×g for 20 seconds and washed 6 times with 150 μl of 20 mM Tris buffer, pH 8.0. The immunocomplex was then dissolved in SDS-PAGE sample buffer and analyzed by Western blot or fluorography.
(§4) The immunoprecipitated proteins (obtained as described above) were subjected to electrophoresis in a 10% SDS-polyacrylamide gel and examined by Western blotting as previously described (18). The immunoprecipitated proteins (obtained as described above) were subjected to electrophoresis in a 10% SDS-polyacrylamide gel. The SDS-PAGE gel was fixed by soaking in 7% acetic acid, 10% methanol, 83% H2 O for 1 hour, and then processed for fluorography as described by Bonner and Laskey (27). The dried gel was exposed to Kodak X-OMAT AR film at -80° C. for 2 weeks.
(§5) The expressed wild-type and variant MAO Bs were adjusted to equal concentrations using ELISA before immunoprecipitation, and then analyzed by fluorography. The amount of incorporation of [^14 C] […] FAD was incorporated into the enzyme.

[2] = tested on: MAO B; assay: as above; format: binding, human; settings: about 59 kDa; equal MAO B concentrations
Method: as §1, §2, §3, §4, §5

[3] = molecular target: T1, MAO B; settings: cited from earlier work

B1: E34D: MAO B with Glu in position 34 replaced with Asp (protein, UniProt P27338 2-520, looked up, variant E34D)
Amine oxidase …: T1 sequence (P27338 2-520 E34D)
For B1, the “[^14 C] FAD incorporation, percent of wild-type” value [1] is listed as “about 10%”, the “[^14 C] FAD incorporation (band on fluorogram)” value [2] is listed as “faint band” and the reduction in activity ([3]; Rib^+ COS-7 cells) is listed as 93%. For the same molecule, the “activity, % of wild-type activity” value [3] was 7%.
